Data from patent publication US20240368260A1 (INSTITUT NATIONAL DE LA SANTE ET DE LA RECHERCHE MEDICALE, published 2024).

T1: recombinant human βIG-H3 (human, UniProt Q15582 24-683)
T1 construct: Bought recombinant protein; also called rhβIG-H3; rhbIG-H3
T1 sequence (looked up): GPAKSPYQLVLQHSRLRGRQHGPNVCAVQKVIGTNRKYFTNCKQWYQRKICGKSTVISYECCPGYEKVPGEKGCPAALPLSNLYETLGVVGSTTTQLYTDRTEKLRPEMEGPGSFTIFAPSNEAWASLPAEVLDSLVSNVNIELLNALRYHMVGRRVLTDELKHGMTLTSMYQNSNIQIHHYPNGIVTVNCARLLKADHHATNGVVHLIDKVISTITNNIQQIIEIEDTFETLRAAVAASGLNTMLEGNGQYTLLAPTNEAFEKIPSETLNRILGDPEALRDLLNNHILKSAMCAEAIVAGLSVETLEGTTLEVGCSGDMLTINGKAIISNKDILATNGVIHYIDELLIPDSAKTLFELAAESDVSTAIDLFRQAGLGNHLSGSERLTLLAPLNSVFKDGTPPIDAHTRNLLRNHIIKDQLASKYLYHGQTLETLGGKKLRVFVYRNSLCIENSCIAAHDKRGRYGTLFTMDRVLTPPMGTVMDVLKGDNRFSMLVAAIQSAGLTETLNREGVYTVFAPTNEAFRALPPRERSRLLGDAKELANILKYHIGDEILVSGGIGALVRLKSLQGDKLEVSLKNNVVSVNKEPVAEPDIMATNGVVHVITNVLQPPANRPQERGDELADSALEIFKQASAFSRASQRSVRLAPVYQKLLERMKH

B1: H-169/L-315 (antibody, human IgG1, kappa, V domains shown)
VH: QVQLVQSGAEVKKPGSSVKVSCKASGFTFSDYYMYWVRQAPGQGLEWVGTISDGGIYAYYAQKVQGRFTITRDSSTSTLYLELSSLRSEDTAVYYCVRGWDRYDSWFACWGQGTTVTVSS
VL: EIVMTQSPATLSVSPGERATMSCRASQSLLYSSNQKNYLAWYQQKPGQAPRLLIYWASTRETGIPARFSGSGSGTEFTLTISSLQSEDFAVYYCQQYYRYPYTFGQGTKLEIKR
B2: Humanized 18B3 B (H330-V1/L41-V1) (antibody, human IgG1, kappa, V domains shown)
VH: QVQLVESGGGVVQPGGSLRLSCAASGFTFSDYYMYWVRQAPGKGLEWVATISDGGIYKYYADSVKGRFTISRDSSKNTLYLQMNSLRAEDTAVYYCVRGWDRYDSWFACWGQGTTVTVSS
VL: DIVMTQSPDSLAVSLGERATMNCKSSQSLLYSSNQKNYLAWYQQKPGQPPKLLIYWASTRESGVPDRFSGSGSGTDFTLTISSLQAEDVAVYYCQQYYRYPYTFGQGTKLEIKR
notes: also called H-330/L-41; H330/L41
B3: 18B3 H330-V1.2/L41-V1 (antibody, human IgG1, kappa, V domains shown)
VH: QVQLVESGGGVVQPGGSLRLSCAASGFTFSDYYMYWVRQAPGKGLEWVATISDGGIYKYYADSVKGRFTISRDSSKNTLYLQMNSLRAEDTAVYYCVRGWDRYDSWFASWGQGTTVTVSS
VL: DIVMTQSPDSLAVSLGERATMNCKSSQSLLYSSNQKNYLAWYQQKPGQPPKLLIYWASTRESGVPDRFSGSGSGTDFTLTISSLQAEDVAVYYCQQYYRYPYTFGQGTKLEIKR
notes: also called H-330/L-41 V1.2; H330C102S/L-41
B4: Humanized 18B3 A (H311-V1/L41-V1) (antibody, human IgG1, kappa, V domains shown)
VH: QVQLVESGGGLVKPGGSLRLSCAASGFTFSDYYMYWIRQAPGKGLEWVATISDGGIYIYYADSVKGRFTISRDSAKNSLYLQMNSLRAEDTAVYYCVRGWDRYDSWFACWGQGTTVTVSS
VL: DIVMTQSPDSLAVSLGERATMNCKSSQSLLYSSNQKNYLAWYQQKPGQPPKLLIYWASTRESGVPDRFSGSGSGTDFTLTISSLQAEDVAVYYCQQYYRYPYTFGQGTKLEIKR
notes: also called H311/L41
B5: Humanized 18B3 E (H330-V1/L228-V1) (antibody, human IgG1, kappa, V domains shown)
VH: QVQLVESGGGVVQPGGSLRLSCAASGFTFSDYYMYWVRQAPGKGLEWVATISDGGIYKYYADSVKGRFTISRDSSKNTLYLQMNSLRAEDTAVYYCVRGWDRYDSWFACWGQGTTVTVSS
VL: DIVMTQSPLSLPVTPGEPASMSCRSSQSLLYSSNQKNYLAWYLQKPGQSPQLLIYWGSTRESGVPDRFSGSGSGTDFTLKISRVEAEDVGVYYCQQYYRYPYTFGQGTKLEIKR
notes: also called H330/L228
B6: Humanized 18B3 D (H311-V1/L228-V1) (antibody, human IgG1, kappa, V domains shown)
VH: QVQLVESGGGLVKPGGSLRLSCAASGFTFSDYYMYWIRQAPGKGLEWVATISDGGIYIYYADSVKGRFTISRDSAKNSLYLQMNSLRAEDTAVYYCVRGWDRYDSWFACWGQGTTVTVSS
VL: DIVMTQSPLSLPVTPGEPASMSCRSSQSLLYSSNQKNYLAWYLQKPGQSPQLLIYWGSTRESGVPDRFSGSGSGTDFTLKISRVEAEDVGVYYCQQYYRYPYTFGQGTKLEIKR
notes: also called H311/L228
B7: Chimeric huIgG1 k 18B3 (antibody, V domains shown)
VH: EVQLVESGGGLVKPGGSLKLSCAASGFTFSDYYMYWVRQTPEKRLEWVATISDGGIYTYYPDSVKGRFTISRDSAKNNLYLQMTSLKSDDTAMYYCVRGWDRYDSWFACWGQGTLVTVSA
VL: DIVMSQSPSSLVVSAGEKVTMTCKSSQSLLYSSNQKNYLAWYRQKPGQSPKLLIYWASTRESGVPDRFTGSGSGTDFTLTISSVKAEDLAVYYCQQYYRYPYTFGGGTKLEIKR
notes: also called ch18B3; 18B3 chim
B8: Mouse monoclonal 18B3 (antibody, V domains shown)
VH: EVQLVESGGGLVKPGGSLKLSCAASGFTFSDYYMYWVRQTPEKRLEWVATISDGGIYTYYPDSVKGRFTISRDSAKNNLYLQMTSLKSDDTAMYYCVRGWDRYDSWFACWGQGTLVTVSA
VL: DIVMSQSPSSLVVSAGEKVTMTCKSSQSLLYSSNQKNYLAWYRQKPGQSPKLLIYWASTRESGVPDRFTGSGSGTDFTLTISSVKAEDLAVYYCQQYYRYPYTFGGGTKLEIK
notes: Mouse IgG1/k from hybridoma; also called m18B3; murine 18B3 mAb
B9: H-311/L-315 (antibody, human IgG1, kappa, V domains shown)
VH: QVQLVESGGGLVKPGGSLRLSCAASGFTFSDYYMYWIRQAPGKGLEWVATISDGGIYIYYADSVKGRFTISRDSAKNSLYLQMNSLRAEDTAVYYCVRGWDRYDSWFACWGQGTTVTVSS
VL: EIVMTQSPATLSVSPGERATMSCRASQSLLYSSNQKNYLAWYQQKPGQAPRLLIYWASTRETGIPARFSGSGSGTEFTLTISSLQSEDFAVYYCQQYYRYPYTFGQGTKLEIKR
B10: H-330/L-315 (antibody, human IgG1, kappa, V domains shown)
VH: QVQLVESGGGVVQPGGSLRLSCAASGFTFSDYYMYWVRQAPGKGLEWVATISDGGIYKYYADSVKGRFTISRDSSKNTLYLQMNSLRAEDTAVYYCVRGWDRYDSWFACWGQGTTVTVSS
VL: EIVMTQSPATLSVSPGERATMSCRASQSLLYSSNQKNYLAWYQQKPGQAPRLLIYWASTRETGIPARFSGSGSGTEFTLTISSLQSEDFAVYYCQQYYRYPYTFGQGTKLEIKR
B11: H-169/L-41 (antibody, human IgG1, kappa, V domains shown)
VH: QVQLVQSGAEVKKPGSSVKVSCKASGFTFSDYYMYWVRQAPGQGLEWVGTISDGGIYAYYAQKVQGRFTITRDSSTSTLYLELSSLRSEDTAVYYCVRGWDRYDSWFACWGQGTTVTVSS
VL: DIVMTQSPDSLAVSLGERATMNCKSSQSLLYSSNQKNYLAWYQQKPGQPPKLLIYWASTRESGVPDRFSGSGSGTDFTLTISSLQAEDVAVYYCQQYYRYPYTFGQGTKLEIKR
B12: H-169/L-228 (antibody, human IgG1, kappa, V domains shown)
VH: QVQLVQSGAEVKKPGSSVKVSCKASGFTFSDYYMYWVRQAPGQGLEWVGTISDGGIYAYYAQKVQGRFTITRDSSTSTLYLELSSLRSEDTAVYYCVRGWDRYDSWFACWGQGTTVTVSS
VL: DIVMTQSPLSLPVTPGEPASMSCRSSQSLLYSSNQKNYLAWYLQKPGQSPQLLIYWGSTRESGVPDRFSGSGSGTDFTLKISRVEAEDVGVYYCQQYYRYPYTFGQGTKLEIKR

Columns and labels:
[1] = target: T1, recombinant human βIG-H3; test: direct ELISA on coated rhβIG-H3
[2] = target: T1, recombinant human βIG-H3; test: direct ELISA on coated rhβIG-H3, anti-human IgG-HRP
[3] = target: T1, recombinant human βIG-H3; test: SPR Biacore T200, antibody captured via anti-human IgG, rhbIG-H3 as analyte, 1:1 fit, mean of n=3
Experimental: (§1) The assays were conducted using Biacore T200 instrument. It was performed in 2 steps: [0324] The first step, called suitability test, was aiming at determining the optimal conditions to run the assay: here, best sensor chip and running buffer conditions are assessed to defined best signal/noise ratio. [0325] The second step is the run itself that was performed in triplicate to ensure reproducibility and robustness of the results.
(§2) For the first step, 2 sensors and various buffer conditions were assessed using the parental and Chimeric 18B3 mAbs as a reference. It was then defined that sensor Chip C1 was the most appropriate, and buffer containing 300 mM NaCl and 0.25 mg/mL BSA was reducing the non-specific binding and increased the signal.
(§3) Rate constants (kₐ, kd) and equilibrium dissociation constants (KD) of rhbIG-H3 interaction with six antibodies determined by SPR. Experimental data were fitted to a 1:1 binding model. Listed are mean values ±SD of n=3 independent experiments.

[4] = target: T1, recombinant human βIG-H3; test: SPR single cycle kinetics, mAb captured via anti-human IgG (Fc) on CM5, hβIG-H3 5-100 nM as analyte, 1:1 model; SCK1 Fc3
Experimental: (§4) Anti-Human IgG (Fc) antibody is chemically grafted on a CM5 sensorchip using amine coupling according to the Cytivia 22064888AF notice. Briefly, surface is first activated by injection of a NHS-EDC mixture. Then, several injections (3 on the 10 available on the kit) of Anti-Human IgG (25 μg/ml in immobilization buffer) adjusting the contact time are performed. Finally, the surfaces are deactivated with ethanolamine 1M pH 8.5.
(§5) A negative control Ab is immobilized on sensor flowcell 1 (Fc 1) and positive control (chimeric 18B3 mAB) on Fc 2. 18B3 variants Abs are immobilized on Fc3 and Fc4:
(§6) Injection of increasing concentrations (5; 10; 25; 50; 100 nM) of antigen (hβIG-H3) during 180 s is performed on each flowcell. Short dissociations are performed in RB between each antigen concentration. After injection of the highest antigen concentration (100 nM), a dissociation in RB is recorded during 3600 s. [0348] Three similar cycles with five injections of RB are carried out before the cycle of Antigen in order to perform double subtraction procedure (Blank run). [0349] Three similar cycles with five injection of RB and a dissociation time of 600 s are performed before the blank runs in order to stabilize the system (Startup run).

[5] = target: T1, recombinant human βIG-H3; test: SPR single cycle kinetics, mAb captured via anti-human IgG (Fc) on CM5, hβIG-H3 5-100 nM as analyte, 1:1 model; SCK2 Fc3
Experimental: as §4, §5, §6

[6] = target: T1, recombinant human βIG-H3; test: SPR single cycle kinetics, mAb captured via anti-human IgG (Fc) on CM5, hβIG-H3 5-100 nM as analyte, 1:1 model; SCK1 Fc2
Experimental: as §4, §5, §6

[7] = target: T1, recombinant human βIG-H3; test: SPR single cycle kinetics, mAb captured via anti-human IgG (Fc) on CM5, hβIG-H3 5-100 nM as analyte, 1:1 model; SCK2 Fc2
Experimental: as §4, §5, §6

[8] = target: T1, recombinant human βIG-H3; test: SPR Biacore T200, antibody captured via anti-mouse IgG, rhbIG-H3 as analyte, 1:1 fit, mean of n=3
Experimental: as §1, §2, §3

Binder	binding result [1]	ELISA Titer [2] [µg/mL]	Kd [3] [nM]	koff [3] [s⁻¹]	kon [3] [M⁻¹ s⁻¹]	also measured
B1	binds					
B2		0.047	0.535	0.000659	1.23e+06	
B3		0.0038				Kd [4]: 0.124 nM; koff [4]: 0.000798 s⁻¹; kon [4]: 6.46e+06 M⁻¹ s⁻¹; Kd [5]: 0.169 nM; koff [5]: 0.000659 s⁻¹; kon [5]: 3.9e+06 M⁻¹ s⁻¹
B4		0.041	0.482	0.000726	1.5e+06	
B5		0.04	0.476	0.000583	1.23e+06	
B6		0.046	0.49	0.000707	1.45e+06	
B7		0.03	0.187	0.000247	1.32e+06	Kd [6]: 0.0627 nM; koff [6]: 0.00013 s⁻¹; kon [6]: 2.06e+06 M⁻¹ s⁻¹; Kd [7]: 0.0854 nM; koff [7]: 0.00016 s⁻¹; kon [7]: 1.87e+06 M⁻¹ s⁻¹
B8						Kd [8]: 0.411 nM; koff [8]: 0.000234 s⁻¹; kon [8]: 572000 M⁻¹ s⁻¹
B9	binds					
B10	binds					
B11	binds					
B12	binds					
